Laboratory results as given in US20190023748A1 (NAVIGEN, published 2019).
Bridge positions count the residues as written; N and C are the ends. Square brackets hold non-standard residues; d marks the D form. Primed or numbered codes have the meaning given here. PEG4′ = not defined here

Columns and labels:
Assay in all cases: cell-based or functional assay
[1] = molecular target: HIV-1 gp41 of strain JRFL (HIV-1 strain JRFL)
[2] = molecular target: HIV-1 gp41 of isolate KNH1088 (clade A) (HIV-1 isolate KNH1088)
[3] = molecular target: HIV-1 gp41 of isolate KNH1135 (clade A) (HIV-1 isolate KNH1135)
[4] = molecular target: HIV-1 gp41 of isolate KNH1207 (clade A) (HIV-1 isolate KNH1207)
[5] = molecular target: HIV-1 gp41 of isolate 0503M02138 (AE) (HIV-1 isolate 0503M02138)
[6] = molecular target: HIV-1 gp41 of isolate NI1046 (AE) (HIV-1 isolate NI1046)
[7] = molecular target: HIV-1 gp41 of isolate NI1149 (AE) (HIV-1 isolate NI1149)
[8] = molecular target: HIV-1 gp41 of isolate NP1251 (AE) (HIV-1 isolate NP1251)
[9] = molecular target: HIV-1 gp41 of isolate NP1525 (AE) (HIV-1 isolate NP1525)
[10] = molecular target: HIV-1 gp41 of isolate CAM0015 (AG) (HIV-1 isolate CAM0015)
[11] = molecular target: HIV-1 gp41 of isolate Ba-L (clade B) (HIV-1 isolate Ba-L)
[12] = molecular target: HIV-1 gp41 of isolate BK132/GS009 (clade B) (HIV-1 isolate BK132/GS009)
[13] = molecular target: HIV-1 gp41 of isolate BX08 (clade B) (HIV-1 isolate BX08)
[14] = molecular target: HIV-1 gp41 of isolate BZ167 (clade B) (HIV-1 isolate BZ167)
[15] = molecular target: HIV-1 gp41 of isolate MN/H9 (clade B) (HIV-1 isolate MN/H9)
[16] = molecular target: HIV-1 gp41 of isolate US1/GS0004 (clade B) (HIV-1 isolate US1/GS0004)
[17] = molecular target: HIV-1 gp41 of isolate US4/GS007 (clade B) (HIV-1 isolate US4/GS007)
[18] = molecular target: HIV-1 gp41 of isolate 56313 (clade C) (HIV-1 isolate 56313)
[19] = molecular target: HIV-1 gp41 of isolate 20635-4 (clade C) (HIV-1 isolate 20635-4)
[20] = molecular target: HIV-1 gp41 of isolate PBL286 (clade C) (HIV-1 isolate PBL286)
[21] = molecular target: HIV-1 gp41 of isolate SM145/GS016 (clade C) (HIV-1 isolate SM145/GS016)
[22] = molecular target: HIV-1 gp41 of isolate TZA246 (clade C) (HIV-1 isolate TZA246)
[23] = molecular target: HIV-1 gp41 of isolate TZA68 (clade C) (HIV-1 isolate TZA68)
[24] = molecular target: HIV-1 gp41 of isolate 57128 (clade D) (HIV-1 isolate 57128)
[25] = molecular target: HIV-1 gp41 of isolate A03349M1 (clade D) (HIV-1 isolate A03349M1)
[26] = molecular target: HIV-1 gp41 of isolate A07412M1 (clade D) (HIV-1 isolate A07412M1)
[27] = molecular target: HIV-1 gp41 of isolate A08483M1 (clade D) (HIV-1 isolate A08483M1)
[28] = molecular target: HIV-1 gp41 of isolate NKU3006 (clade D) (HIV-1 isolate NKU3006)
[29] = molecular target: HIV-1 gp41 of isolate 92UG029 (clade A) (HIV-1 isolate 92UG029)
[30] = molecular target: HIV-1 gp41 of isolate KER2018 (clade A) (HIV-1 isolate KER2018)

B1: CPT31 (cholesterol-PIE12-2-trimer with PEG32 fourth-arm spacer) (peptide)
peptide: Ac-[dH][dP][dC][dD][dY][dP][dE][dW][dQ][dW][dL][dC][dE][dL]G[PEG4′]K-NH2
modifications: disulfide 3-12 (inferred); not fully specified (some residues); numbers in words are those of the source; also: PIE12-2 trimer on scaffold, fourth arm PEG28 + PEG4 with cholesteryl carbamate
- Antiviral potency, IC50, JRFL pseudovirion entry assay [1]: 0.015 nM
- 1 nM inhibition [2]: 98.5%
- 10 nM inhibition [2]: 99.6%
- 1 nM inhibition [3]: 80.6%
- 10 nM inhibition [3]: 83.4%
- 1 nM inhibition [4]: 92.1%
- 10 nM inhibition [4]: 98.2%
- 1 nM inhibition [5]: 95.2%
- 10 nM inhibition [5]: 98%
- 1 nM inhibition [6]: 99.1%
- 10 nM inhibition [6]: 99.7%
- 1 nM inhibition [7]: 92.9%
- 10 nM inhibition [7]: 97.4%
- 1 nM inhibition [8]: 97%
- 10 nM inhibition [8]: 98.4%
- 1 nM inhibition [9]: 98.8%
- 10 nM inhibition [9]: 99.3%
- 1 nM inhibition [10]: 96%
- 10 nM inhibition [10]: 97%
- 1 nM inhibition [11]: 96.9%
- 10 nM inhibition [11]: 99.8%
- 1 nM inhibition [12]: 99.7%
- 10 nM inhibition [12]: 99.8%
- 1 nM inhibition [13]: 94.2%
- 10 nM inhibition [13]: 99.5%
- 1 nM inhibition [14]: 99.4%
- 10 nM inhibition [14]: 99.8%
- 1 nM inhibition [15]: 99.3%
- 10 nM inhibition [15]: 100%
- 1 nM inhibition [16]: 95.3%
- 10 nM inhibition [16]: 97.7%
- 1 nM inhibition [17]: 91.1%
- 10 nM inhibition [17]: 98.7%
- 1 nM inhibition [18]: 97.9%
- 10 nM inhibition [18]: 99.3%
- 1 nM inhibition [19]: 99%
- 10 nM inhibition [19]: 99.6%
- 1 nM inhibition [20]: 95.8%
- 10 nM inhibition [20]: 99%
- 1 nM inhibition [21]: 30.6%
- 10 nM inhibition [21]: 75.7%
- 1 nM inhibition [22]: 98.3%
- 10 nM inhibition [22]: 98.4%
- 1 nM inhibition [23]: 97.7%
- 10 nM inhibition [23]: 99.7%
- 1 nM inhibition [24]: 35.2%
- 10 nM inhibition [24]: 37.3%
- 1 nM inhibition [25]: 93.6%
- 10 nM inhibition [25]: 99.5%
- 1 nM inhibition [26]: 92%
- 10 nM inhibition [26]: 96.7%
- 1 nM inhibition [27]: 69.2%
- 10 nM inhibition [27]: 72.3%
- 1 nM inhibition [28]: 97.2%
- 10 nM inhibition [28]: 99.8%
- 1 nM inhibition [29]: 95.2%
- 10 nM inhibition [29]: 98.2%
- 1 nM inhibition [30]: 94.8%
- 10 nM inhibition [30]: 97.5%
